This note sets out measurements from publication PMC3563686.

For this test, the target named is His-vimentin, purified recombinant, polymerized (UniProt P08670). In words: co-sedimentation.
Chain of His-vimentin, purified recombinant, polymerized (P08670 whole entry): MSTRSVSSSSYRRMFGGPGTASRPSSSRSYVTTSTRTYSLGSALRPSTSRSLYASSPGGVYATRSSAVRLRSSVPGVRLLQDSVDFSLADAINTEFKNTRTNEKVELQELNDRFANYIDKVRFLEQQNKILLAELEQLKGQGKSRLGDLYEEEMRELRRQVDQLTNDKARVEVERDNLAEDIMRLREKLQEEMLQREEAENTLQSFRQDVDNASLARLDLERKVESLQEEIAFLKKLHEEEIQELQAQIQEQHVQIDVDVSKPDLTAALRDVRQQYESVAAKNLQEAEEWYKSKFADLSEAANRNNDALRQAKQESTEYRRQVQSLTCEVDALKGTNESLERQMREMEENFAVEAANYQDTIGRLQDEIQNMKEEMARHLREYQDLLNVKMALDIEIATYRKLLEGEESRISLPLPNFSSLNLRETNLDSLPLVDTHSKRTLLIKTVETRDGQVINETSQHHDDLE

In the case of “adenomatous polyposis coli (APC), endogenous in rat primary astrocytes, P70478 1-2842”, the percent of total APC cosedimented amounted to 18.5%.
